From patent US20170233781 come the findings set out here.

Numbering of substitutions follows the chain as printed. Numbers in names are those of the source.

Data set [1] deals with LPETA sorting signal (SEQ ID NO:29).
Data set [2] addresses T1, RLLPR substrate (SEQ ID NO:40).
T1 chain: RLLPR

In data set [3] the target is T2, RLRPR substrate (SEQ ID NO:39).
T2 chain: RLRPR

Data set [4] concerns the target T3, SPAKR substrate (SEQ ID NO:32).
T3 chain: SPAKR

The target of data set [5] is T4, RLSRR substrate (SEQ ID NO:41).
T4 chain: RLSRR

Data set [6] concerns the target T5, ALARR substrate (SEQ ID NO:36).
T5 chain: ALARR

Data set [7] addresses T6, LRPRA substrate (SEQ ID NO:37).
T6 chain: LRPRA

Data set [8] addresses T7, PLLAR substrate (SEQ ID NO:47).
T7 chain: PLLAR

Data set [9] concerns the target T8, RLTPR substrate (SEQ ID NO:31).
T8 chain: RLTPR

In data set [10] the target is T9, PLLPR substrate (SEQ ID NO:42).
T9 chain: PLLPR

The target in data set [11] is T10, ALLPR substrate (SEQ ID NO:46).
T10 chain: ALLPR

Data set [12] concerns the target T11, LQPRA substrate (SEQ ID NO:51).
T11 chain: LQPRA

Data set [13] concerns the target T12, PLRPR substrate (SEQ ID NO:44).
T12 chain: PLRPR

Data set [14] deals with T13, RLAPR substrate (SEQ ID NO:45).
T13 chain: RLAPR

The target in data set [15] is T14, LLCKR substrate (SEQ ID NO:50).
T14 chain: LLCKR

Data set [16] concerns the target T15, ALSRR substrate (SEQ ID NO:38).
T15 chain: ALSRR

Data set [17] concerns the target T16, SLRRR substrate (SEQ ID NO:49).
T16 chain: SLRRR

Another data set deals with T17, RRRRR substrate.
T17 chain: RRRRR

Data set [18] addresses T18, VARRD substrate (SEQ ID NO:14).
T18 chain: VARRD

Data set [19] addresses T19, PLLRR substrate (SEQ ID NO:43).
T19 chain: PLLRR

Data set [20] addresses T20, PLVPR substrate (SEQ ID NO:48).
T20 chain: PLVPR

Data set [21] has as its target T21, ENLYFQS substrate (SEQ ID NO:8).
T21 chain: ENLYFQS

Data set [22] has as its target T22, ENLYFES substrate (SEQ ID NO:1).
T22 chain: ENLYFES

Turning to SrtA from S. pyogenes (residues 81-249), the “sortase transpeptidation in yeast ER (FACS, HA-FITC against FLAG-PE)” value in data set [1] was “A positive signal resulted in an increase in HA-FITC signal and decrease in FLAG-PE signal (FIG. 6B), in comparison to the negative control (FIG. 6A)”.

B1: Kex2 convertase (endogenous, yeast secretory pathway of Saccharomyces cerevisiae EBY100) (protein)
chain: APPMDSSLLPVKEAEDKLSINDPLFERQWHLVNPSFPGSDINVLDLWYNNITGAGVVAAIVDDGLDYENEDLKDNFCAEGSWDFNDNTNLPKPRLSDDYHGTRCAGEIAAKKGNNFCGVGVGYNAKISGIRILSGDITTEDEAASLIYGLDVNDIYSCSWGPADDGRHLQGPSDLVKKALVKGVTEGRDSKGAIYVFASGNGGTRGDNCNYDGYTNSIYSITIGAIDHKDLHPPYSEGCSAVMAVTYSSGSGEYIHSSDINGRCSNSHGGTSAAAPLAAGVYTLLLEANPNLTWRDVQYLSILSAVGLEKNADGDWRDSAMGKKYSHRYGFGKIDAHKLIEMSKTWENVNAQTWFYLPTLYVSQSTNSTEETLESVITISEKSLQDANFKRIEHVTVTVDIDTEIRGTTTVDLISPAGIISNLGVVRPRDVSSEGFKDWTFMSVAHWGENGVGDWKIKVKTTENGHRIDFHSWRLKLFGESIDSSKTETFVFGNDKEEVEPAATESTVSQYSASSTSISISATSTSSISIGVETSAIPQTTTASTDPDSDPNTPKKLSSPRQAMHYFLTIFLIGATFLVLYFMFFMKSRRRIRRSRAETYEFDIIDTDSEYDSTLDNGTSGITEPEEVEDFDFDLSDEDHLASLSSSENGDAEHTIDSVLTNENPFSDPIKQKFPNDANAESASNKLQELQPDVPPSSGRS
Regarding B1, the “substrate cleavage in EBY100 against EBY100^Kex2- (two-colour FACS, FLAG-PE/HA-FITC)” value in [2], in data set [3], in [5], in [6], in data set [7] and in [8] was “✓” each time. Also, the “substrate cleavage in EBY100 against EBY100^Kex2- (two-colour FACS, FLAG-PE/HA-FITC)” value in data set [9], in data set [10], in [11], in data set [13], in data set [14] and in [16] was “✓” in each case. Moreover, the “substrate cleavage in EBY100 against EBY100^Kex2- (two-colour FACS, FLAG-PE/HA-FITC)” value in [17], in data set [19] and in data set [20] was “✓” throughout. Further, the “substrate cleavage in EBY100 against EBY100^Kex2- (two-colour FACS)” value in data set [4] is “All three substrates exhibited cleavage in EBY100 and non-cleavage in EBY100^Kex2-”; in data set [12] it was “efficient cleavage in the EBY100 and non-cleavage in the EBY100^Kex2- strain”; in [15] it was “All three substrates exhibited cleavage in EBY100 and non-cleavage in EBY100^Kex2-”; in [18] it was “All three substrates exhibited cleavage in EBY100 and non-cleavage in EBY100^Kex2-”. The “substrate cleavage in EBY100 against EBY100^Kex2-” value in the data set with RRRRR substrate was “the RRRRR was also found to be only cleaved in the EBY100 and not in the EBY100^Kex2-”.

B2: wild-type tobacco etch mosaic virus protease (TEV-P) (protein)
chain: GESLFKGPRDYNPISSTICHLTNESDGHTTSLYGIGFGPFIITNKHLFRRNNGTLLVQSLHGVFKVKNTTTLQQHLIDGRDMIIIRMPKDFPPFPQKLKFREPQREERICLVTTNFQTKSMSSMVSDTSCTFPSSDGIFWKHWIQTKDGQCGSPLVSTRDGFIVGIHSASNFTNTNNYFTSVPKNFMELLTNQEAQQWVSGWRLNADSVLWGGHKVFMSKPEEPFQPVKEATQLMNELVYSQFEHDEL
For B2, in data set [21], the “enrichment of cleaved substrate sequences after FACS sorting (YESS with NextGen sequencing)” value is on record as “significant enrichments of the ENLYFQS (SEQ ID NO:8) sequence were observed for the wide-type TEV-P”.

B3: engineered TEV protease variant TEV-PE10 (S120R, D148R, T173A, N177K, M218I) (protein)
chain: B2 chain with S120R, D148R, T173A, N177K, M218I
For the molecule B3, the “enrichment of cleaved substrate sequences after FACS sorting (YESS with NextGen sequencing)” value in data set [22] is listed as “significant enrichments of the ... ENLYFES (SEQ ID NO:1) sequence for the engineered TEV-PE10”.
